Source: patent US20200164064A1 (Hoffmann-La Roche, published 2020)

Molecular target: T1, Ac-PYY(PEG3-Dig) (N-terminal acetyl; Lys 2 side chain carries PEG3-digoxigenin (digoxigenin-3-carboxymethyl on 12-amino-4,7,10-trioxadodecanoic acid); Pqa at position 3; N-methyl-Arg at position 14; C-terminal amide)
T1 construct: also called DIG-PYY; Dig-PYY
T1 peptide: IKXRHYLNWVTRQXY
Test: size exclusion chromatography and SEC-MALS of the non-covalent complex
Description: After completion of the complexation reaction, the complexes were purified by size exclusion chromatography via a Superdex 200 26/60 GL column (320 ml) in 20 mM histidine, 140 mM NaCl, at pH 6.0 at a flow rate of 2.5 ml/min. […] Polypeptide and antibody were incubated for 1.5 hrs. at room temperature. The excess of polypeptide was removed by size exclusion chromatography via a Superose 6 10/300 GL column in 20 mM histidine, 140 mM NaCl, at pH 6.0 at a flow rate of 0.5 ml/min.
For SEC-MALS analysis, 100-500 μg of the respective sample was applied to a Superdex 200 10/300 GL size exclusion column with a flow rate of 0.25-0.5 ml/min with 1×PBS pH 7.4 as mobile phase. Light scattering was detected with a Wyatt miniDawn TREOS/QELS detector, the refractive index was measured with a Wyatt Optilab rEX-detector. Resulting data was analyzed using the software ASTRA (version 5.3.4.14).

B1: murine anti-digoxigenin antibody (hybridoma-derived) (antibody, mouse IgG1, V domains shown)
VH: EVQLVESGGGLVKPGGSLKLSCAVSGFTFSDYAMSWIRQTPENRLEWVASINIGATYAYYPDSVKGRFTISRDNAKNTLFLQMSSLGSEDTAMYYCARPGSPYEYDKAYYSMAYWGPGTSVTVSS
VL: DVQMTQSTSSLSASLGDRVTISCRASQDIKNYLNWYQQKPGGTVKLLIYYSSTLLSGVPSRFSGRGSGTDFSLTITNLEREDIATYFCQQSITLPPTFGGGTKLEIK
notes: also called murine hybridoma-derived antibody
- binding result: binds
